system: Escherichia coli TOP10; assay: shrunken log2 fold change of peptide-encoding DNA abundance (4.5 h post-induction vs induction); higher = less antimicrobial activity (less host growth inhibition); details: time post-induction: 4.5 h; library: site-saturation at positions 5, 18, 19, 20
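Also: peptides expressed intracellularly from a pBAD plasmid library in pooled LB shake-flask culture, induced with 0.3% L-arabinose, DNA abundance read by NGS, three biological replicates, DESeq2 with apeglm shrinkage.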

Sequence | shrunken log2 fold change
RRIRMRPPRLPRPRPRPAFWPRP | 0.963
RRIRNRPPRLPRPRPRPRPLPRP | 0.402
RRIRNRPPRLPRPRPRPYPFPRP | 0.0247
RRIRVRPPRLPRPRPRPCFRPRP | -0.164
RRIRMRPPRLPRPRPRPMRSPRP | 1.67
RRIRDRPPRLPRPRPRPTRPPRP | 1.13
RRIRERPPRLPRPRPRPGNDPRP | -0.0081
RRIRTRPPRLPRPRPRPFWVPRP | -0.0427
RRIRNRPPRLPRPRPRPGFEPRP | 0.123
RRIRKRPPRLPRPRPRPWEQPRP | 0.0133
RRIRSRPPRLPRPRPRPNHIPRP | -0.651
RRIRIRPPRLPRPRPRPGKTPRP | -0.126
RRIRNRPPRLPRPRPRPTLQPRP | 0.0909
RRIRHRPPRLPRPRPRPLDPPRP | -0.331
RRIRLRPPRLPRPRPRPSHSPRP | -0.775
RRIRLRPPRLPRPRPRPVSNPRP | -0.837
RRIRQRPPRLPRPRPRPGQGPRP | -0.000829
RRIRQRPPRLPRPRPRPKIMPRP | -0.668
RRIRWRPPRLPRPRPRPDVEPRP | 0.182
RRIRRRPPRLPRPRPRPRLLPRP | 0.474
RRIRARPPRLPRPRPRPPFRPRP | 0.977
RRIRGRPPRLPRPRPRPKKNPRP | 0.778
RRIRGRPPRLPRPRPRPQICPRP | 0.156
RRIRWRPPRLPRPRPRPRAKPRP | 0.788
RRIRMRPPRLPRPRPRPIVTPRP | -0.00781

Sequence | shrunken log2 fold change
RRIRARPPRLPRPRPRPCGFPRP | 0.111
RRIRNRPPRLPRPRPRPSSYPRP | -0.388
RRIRVRPPRLPRPRPRPDKEPRP | 0.000945
RRIRCRPPRLPRPRPRPGKKPRP | -0.0838
RRIRARPPRLPRPRPRPVNFPRP | 0.629
RRIRVRPPRLPRPRPRPFVIPRP | -0.477
RRIRHRPPRLPRPRPRPAPNPRP | 0.497
RRIRDRPPRLPRPRPRPIYGPRP | -0.0774
RRIRQRPPRLPRPRPRPHIGPRP | -0.0345
RRIRERPPRLPRPRPRPLFDPRP | -0.581
RRIRGRPPRLPRPRPRPIQYPRP | -0.0751
RRIRFRPPRLPRPRPRPNYQPRP | -0.467
RRIRLRPPRLPRPRPRPQKVPRP | 0.0989
RRIRGRPPRLPRPRPRPFKKPRP | 0.0278
RRIRFRPPRLPRPRPRPRIQPRP | 0.018
RRIRNRPPRLPRPRPRPLPNPRP | -0.0288
RRIRKRPPRLPRPRPRPITQPRP | -0.00651
RRIRWRPPRLPRPRPRPKVAPRP | 1.16
RRIRLRPPRLPRPRPRPAEIPRP | -0.219
RRIRDRPPRLPRPRPRPSVFPRP | 0.423
RRIRHRPPRLPRPRPRPIWVPRP | 0.0163
RRIRPRPPRLPRPRPRPRSMPRP | 0.0858
RRIRSRPPRLPRPRPRPMNEPRP | -0.457
RRIRWRPPRLPRPRPRPFYMPRP | -0.297
RRIRERPPRLPRPRPRPALMPRP | 0.129

Sequence | shrunken log2 fold change
RRIRWRPPRLPRPRPRPWVSPRP | -0.0613
RRIRQRPPRLPRPRPRPLPAPRP | 0.214
RRIRQRPPRLPRPRPRPMKVPRP | 0.0879
RRIRYRPPRLPRPRPRPTRNPRP | -0.404
RRIRGRPPRLPRPRPRPWVEPRP | 0.129
RRIRRRPPRLPRPRPRPWSHPRP | -0.121
RRIRFRPPRLPRPRPRPIHLPRP | -0.154
RRIRMRPPRLPRPRPRPPRTPRP | 1.46
RRIRGRPPRLPRPRPRPGCRPRP | 1.16
RRIRFRPPRLPRPRPRPPAHPRP | 0.613
RRIRMRPPRLPRPRPRPHRIPRP | 0.0956
RRIRHRPPRLPRPRPRPRTGPRP | -0.111
RRIRARPPRLPRPRPRPPKTPRP | 0.12
RRIRRRPPRLPRPRPRPFMYPRP | -0.174
RRIRFRPPRLPRPRPRPHLWPRP | 0.185
RRIRIRPPRLPRPRPRPHVCPRP | 0.41
RRIRMRPPRLPRPRPRPCGKPRP | 0.0716
RRIRKRPPRLPRPRPRPPNWPRP | 0.593
RRIRKRPPRLPRPRPRPFCRPRP | 0.558
RRIRHRPPRLPRPRPRPLKFPRP | -0.298
RRIRMRPPRLPRPRPRPNPVPRP | -0.0385
RRIRTRPPRLPRPRPRPCSDPRP | -0.104
RRIRARPPRLPRPRPRPWNHPRP | -0.128
RRIRVRPPRLPRPRPRPGKAPRP | -0.00584
RRIRLRPPRLPRPRPRPPYQPRP | -0.0294

Source: the supplement of paper PMC9112550, “Optimization of the antimicrobial peptide Bac7 by deep mutational scanning” (BMC Biology, 2022)
